This note sets out measurements from patent US9803013B2, “Biological materials and uses thereof” (BioInvent International AB, priority 2005, dated 2017).

Assay [1] concerns primary patient MM cells. Description: SCID-hu mouse model of multiple myeloma. It counts as in vivo. How it is done: Bone marrow cells (>20% plasma cells) from myeloma patients (two patients in experiment 1 [top panel] and two different patients in experiment 2 [lower panel]) were injected into transplanted human fetal bones of SCID-hu mice. Four weeks after myeloma cell inoculation mice were divided into four groups to yield similar mean hIgG levels between groups, each group comprising mice grafted with MM cells from the different patient donors used in the experiment, and twice weekly treatment with 2 mg/kg BI-505, 1 mg/kg bortezomib or 2 mg/kg control human IgG was started (arrow). […] Graphs show mean hIgG concentrations.
Primary human MM cells depend on interactions with bone marrow stromal cells to proliferate and survive. The SCID-hu mouse harbors a human microenvironment where primary patient MM cells proliferate and induce pathology similar to human clinical MM (Yaccoby et al., 1998). MM cell derived human IgG titers were detected (>10 μg/ml) in the serum of SCID-hu mice four weeks after implantation of human MM cells to transplanted human bones, at which time treatment with antibodies (2 mg/kg) or bortezomib (1 mg/kg) began. Human IgG titers increased steadily in control treated SCID-hu mice over the course of experimentation to reach maximal concentrations of 40±5 μg/ml just before sacrifice (FIG. 18B and FIG. 19). […] Two independent experiments were performed with similar results (FIG. 18B and FIG. 19), each with MM cells from two different patient donors (n=4).
Human fetal femurs and tibias, obtained at 17 to 22 gestational weeks, were cut into fragments and implanted subcutaneously in SCID mice (SCID-hu) at age 6 to 8 weeks. Each animal was implanted with one bone fragment. Four weeks after bone implantation, 2 to 14×10^6 bone marrow cells from each patient (two patients per experiment for a total of four patients in two independent experiments, n=4), containing>20% plasma cells were injected directly into the human bone of 6 to 8 SCID-hu mice in a final volume of 30 to 40 μl of phosphate-buffered saline (PBS). One group of mice was implanted with bone only and served as “healthy” bone control. Mouse sera were serially monitored for human immunoglobulin (hIg) and the isotype levels were used as an indicator of myeloma cell growth by elisa. When hIg level reached 10 μg/mL or higher in 2 consecutive measurements after 4 weeks of injection of the tumor cells, the mice were divided into four groups to yield similar mean hIgG levels between groups, each group comprising mice grafted with MM cells from the different patient donors used in each experiment. The four treatment groups were: healthy control group (no myeloma cells injected and no drug treatment), isotype control group (myeloma cells injected and treated with isotype control IgG, 2 mg/kg, i.p., twice weekly), BI505 group (myeloma cells injected and treated with BI505, 2 mg/kg, i.p., twice weekly) and bortezomib group (myeloma cells injected and treated with 1 mg/kg, i.p., twice weekly). In some graphs hIgG levels were normalized to pretreatment (4 weeks) levels and the percent increase or decrease in hIgG levels as a function of treatment and time was analyzed. Normalized data from animals receiving the same treatment (control IgG, BI-505 or bortezomib) but grafted with MM cells from each of the four different patient donors in the two experiments were pooled and statistical difference was assessed by grouped 2-way ANOVA test and Bonferroni's posttest using GraphPad Prism 5 software. Patient myeloma cells were taken after informed consent and with the approval of the local ethics committee. For x-radiography evaluation and quantification of bone mineral density (BMD) mice in the four groups were sacrificed and the implanted human bones were taken out and fixed in 10% formalin solution. Radiographs were taken with an AXR Minishot-100 beryllium source instrument (Associated X-Ray Imaging Corp., Haverhill, Mass., USA) and 100 s exposure at 30 kV. […]

The test system of assay [2] is CaCo2. Kind of assay: IgG binding to carcinoma cell line, flow cytometry MFI. Details: species or system human. As to conditions: CaCo2, Colon carcinoma. An excerpt:
(§1) The antigen distribution of human antibody targeted antigens, mainly for B11, on different carcinoma cell lines was investigated. Cells (MCF-7 and MDA MB 435S breast carcinoma, JAR and JEG-3 chorio-carcinoma, A549 lung carcinoma, TCC-SUP urinary bladder carcinoma, MDA MB 435 melanoma, HPAC, PANC-1 and BxPC-3 pancreatic carcinoma, PC-3 and DU145 prostate carcinoma, LS174 T, CaCo2, and Lovo colorectal carcinoma, and THP-1 monocytic leukaemia cells), were washed in PBS, and resuspended at 4×10^6 cells/ml in Complete Medium (200,000 cells/50 […] sample). […] Cells were incubated with either of the antibodies for 1 hour on ice, washed by resuspension in PBS/BSA 0.5%, centrifuged at 1200 rpm for 5 min, and complete aspiration of the supernatants was undertaken. Cells were incubated with PE-conjugated Goat F(ab′)2 anti-Human IgG (Caltag Laboratories, Cat no: H10104), diluted 1/50 in PBS/BSA 0.5%, for 30 min, on ice. Following resuspension of in 300 μl PBS/BSA 0.5%, cells were analysed for IgG binding using a FACScan instrument.
(In general: Flow cytometry measures light scatter and fluorescence of single cells or particles in a stream.)

Assay [3] deals with BxPC-3. Described as above. Particulars: BxPC-3, Pancreatic carcinoma. Set-up: species or system human.
Description: as §1

Assay [4] has as its system PANC-1. Described as above. Details: species or system human. Particulars: PANC-1, Pancreatic carcinoma.
Description: as §1

The test system of assay [5] is TCC-SUP. The description is as above. Set-up: species or system human. As to conditions: Urinary bladder carcinoma.
Description: as §1

For assay [6], the system named is JEG-3. Described as above. Set-up: species or system human. Particulars: JEG-3, Chorio-carcinoma.
Description: as §1

Assay [7] concerns JAR. Described as above. Details: species or system human. Particulars: Chorio-carcinoma.
Description: as §1

Assay [8] relates to DU145. The assay is described as above. Details: species or system human. Particulars: DU145, Prostate carcinoma.
Description: as §1

Assay [9] deals with PC-3. The assay is described as above. Set-up: species or system human.
Description: as §1

Assay [10] relates to A549. Described as above. Set-up: species or system human. Particulars: A549, Lung carcinoma.
Description: as §1

For assay [11], the system named is Lovo. The assay is described as above. As to conditions: Colon carcinoma. Details: species or system human.
Description: as §1

The subject of assay [12] is MDA MB 435S. The description is as above. Set-up: species or system human. Particulars: Mammary carcinoma.
Description: as §1

B1: B11: fully human IgG1 antibody specific for ICAM-1; VH and VL sequences of FIG. 10 (SEQ ID NOs. 6 and 8) (antibody, listed as Homo sapiens, V domains shown)
VH: EVQLLESGGGLVQPGGSLRLSCAASGFTFSNAWMSWVRQAPGKGLEWVAFIWYDGSNKYYADSVKGRFTISRDNSKNTLYLQMNSLRAEDTAVYYCARYSGWYFDYWGQGTLVTVSS
VL: QSVLTQPPSASGTPGQRVTISCTGSSSNIGAGYDVHWYQQLPGTAPKLLIYDNNNRPSGVPDRFSGSKSGTSASLAISGLRSEDEADYYCQSYDSSLSAWLFGGGTKLTVLG
Regarding B1, the “serum hIgG relative to pre-treatment levels” value in assay [1] (2 mg/kg twice weekly from four weeks after MM cell implantation) was determined as 91±22%. The “bone osteoclasts” value in assay [1] (TRAP staining, compared to control-treated mice) is on record as “reduced numbers of bone osteoclasts”. The “bone mineral density” value in [1] (X-radiography of implanted human bones) is listed as “decreased loss of bone mineral density”. For the same molecule, the “serum human IgG levels” value in assay [1] (antibody 2 mg/kg or bortezomib 1 mg/kg twice weekly) was “halted or reduced serum human IgG levels to below pre-treatment levels”. For the same molecule, the “tumor burden in human bone implants” value in assay [1] (human CD138 immunohistochemistry) is on record as “decreased tumor burden”. The MFI is reported as 800 in assay [2]; 2000 in assay [3]; 3800 in assay [4]; 3200 in [5]; 1600 in assay [6]; 2000 in [7]. For the same molecule, the MFI in assay [8] is 2200; in assay [9] (PC-3, Prostate carcinoma) it was 1500; in [10] it was 800; in [11] it was 1600; in assay [12], 800. In addition, the “binding” value in assay [9] (PC-3 prostate carcinoma cells) is “strong binding”.
